Experimental data from the domain aggregation screens of Martell et al. (2025).

Assay: soluble fraction after stress (log2 fold change); higher = more stays soluble; pooled small domains, quantitative proteomics
Settings: stress: 50 degC
How it was run: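 Quantitative proteomics served as the high-throughput read-out for pooled custom libraries of small protein domains. Each was stressed at 50°C. Aggregation propensity is expressed as the base-two log fold change in soluble protein after stress. A higher value means a larger share of the protein remains in solution.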

Sequence | soluble fraction (log2)
HMKINYNEFLRRFLGEKEGDIIEMETGKRIGTHKGYWFHTIGQRKGLGLGGGPWFVIRKDIDENIIYVSHG | -1.06
HMKIPGIGDVYAILARVYSGPQFTWIEAGFPEDDTKAYSYLHTAIRKGSAIAILQAMRTSGALTPTIEKE | -0.444
HMKIPPIMFVRAIMVAGRQSMAIMDIEGVGTGIIVRSGYSFSNGEGKVVRIGPDKVTVNWSGKHLDLAPG | -0.615
HMKIPQFAVIKQYLEQQIKTAQWAPGRQIPTEQSLADTFSVSRMTARRAVQQLADAGLLERTQGSGTFVAD | -0.145
HMKISDTITEKILTDNNFSMELAKKIGIQQGSLLSSIRRNRDSRILRLWEAVMFYKEQGYTEEEIFTDY | -1.27
HMKISELAKKVIASGRVTQWAKHPHIYFVNGMRKVAIELDVNGVFSISMRYYPYDPADRELVENLIRGD | -2.53
HMKIVQHQLQLPVHVAGKFKGMFYKSDFVMSEDYDDDGNMILAVRLPLVDWNKFLKRTDNELSQYIKVTP | -0.858
HMKKALTAEQEARVRELYFRGINYYSANRYQDAIAEWRKVLAIDPNHEKAKNNIRQTLILLK | -0.257
HMKKDNLKKIKSIDEDIENELFKLGIYHFEQISIWSSKNAEWIENFLNLPNYVRANQWVEQAKILK | -1.47
HMKKDRKKMLKEGIVLFEKILRGMELSPTSEPLKKVLTSFNIQNKEDLYVKLGAGVISSEEVIKELKKK | 0.183
HMKKILIVTNRSAGMVVYTIPEEGIRREFTPGETKKIPFEELEKLAYLSGGRTLMENFLKIVDTETTEELG | -0.543
HMKKIYEEVSEAILTMIKNGTLKPGDKLLPVHQLAEQFQVGRSAVREALSALRAMGLIEMKQGEGTYVKNF | -0.462
HMKKKVDSENLLLDILKQMQPQASTNVLRKMLTNQRISVDDQIIHRAKHVVQEGQTVEIHPKP | 0.00763
HMKKLPEKFDYNEISGLRIEAQQKLNEFQPLNIGQASRISGVTPADISVLLVYLEQLKYSNPDLFFKLNPD | -0.798
HMKKLTAEEIQEAKDILEKIQEIPNFKKIFGDDTIKALENSTKTGVLLPDNIISKIHTLMIRFGIK | 0.237
HMKKMEEEFALFNAWVDRRLGIPLAAYKENQMQRRILTIMENSGAKTLREYQQLIEGDEGVRAAFLAHIT | -1.1
HMKKPIYLTIANDIEKKIFNNDYPKNERLPSERNLAEEYGVTRMTIRNSIEYLVSKGLLEKRLGSGNYVKR | -0.646
HMKKPLEYIDVDKREDFPPVPNGMRYIHFYGGTKNYRAYIAPEDISRADFMEQYPEYVPEHN | 0.184
HMKKSTLLLFFLKELLEGKKISLKSFALENDINIRTAQRYIEDIEEAFPDNLLKENDFYSFV | -2.25
HMKKTETVRFTTNVTHGTKIKETDVEVVKISNSALPDKVVKNKTEVIGKYATADLFKGDFATENKVTD | 0.0533
HMKKTIIVHVVGEVNTPGIVELNEGARIIDAINGAGGKTEEADMSKINLAYVIEDGSQIYVPSIYE | -0.227
HMKKTITISNYINVRDFATMSELPVNSILSVLMKNGIFVSLNEKIDFDTAWLVGSELGLEVKQKQG | -0.214
HMKKYEFIEDLPGVGPATAQKLRDLGYHTVESLAMATARELEPIGVGEKKAFSMIEAARSAIGFS | 0.283

Sequence | soluble fraction (log2)
HMKKYISEEQAKQAALETAGGGSVVKIKFTTDDGIKVYEIDIINGNYEYEITVHAETGKILDVDKERIH | -1.04
HMKLELSNDFYNKIRLARKENGLTQEDLAEKLNMKVGVIQKIENGVRQTDSNLMKISKFLGVEIYVE | -1.46
HMKLPNGYGGIAKLSGKRRNPWRVRVTKGWSVDEQTGKAKQLFSTLGYYPTRKDALAALSAYNQNP | -0.942
HMKLRLGVNIDPVATVRNARGSAYPDPVRAAIIAQEAGADGITAHLREDRRHIVDQDITSIIKAIDIPLNF | -0.0391
HMKLRSIQEQVQYLEKVDNQKAMQIILNMNDKASAVQILRNMKKEKAAAILAQMDPLQAAQILEDLA | 0.0608
HMKLSDDIIVDTIKEIIEENKNMIEQRKMGAMGPLMGKAMAKFKGKADGQTVSNVIKDEILNIIN | 0.154
HMKLSIEDLAAELIRKIEAGDIGNEQGKMPSERELLAIYPVSRYTLRQALNKLSKMGWIYQMQGRGSYIRF | -1.35
HMKLSNELLNAIMLIKKGIRNPTSLAQRLNTDTQYAKNLLEHLKMTGLINEHSRLTSRGLDIFHQK | 0.163
HMKLTEEEFNAKRKAYLDRLETLNDEAVIKATFMEAASGLGLQKGSAEFGDLRKYFVDRIVDIK | 0.385
HMKLTEGETIFLNESDTADWKKIPGIGSVYASRIVKYRNLLGGFVSVNQLREVYGIDDELFAKIYPYI | -0.0044
HMKLTESQLHKFTNDAVLAHIRNLIEFKGAFTEDDIEPIIRDRAAVYGIDLEDEDYKKVKTDVEYHFK | -0.000214
HMKLVELVGSPKQIAWAEDIRKNMISYLSALVRKYEAENRPARAEKRAKDMEILSNIKEASWFIENRS | -0.661
HMKMAKTIKEIAEEIGVSKQAVFKKIKQVPLSTEIEKFISTVDGKKLVSVDGENLIKQAFQR | 0.325
HMKMLKAPIPGTIIEVKVNPGQTVNDGDVAVVLEAMKMESDIHFNSSGKVKKIHVNKGDSVQEGDDLIELE | 0.0938
HMKMNRELNQRQIKMLDYLSVNPKTTRKQYTKMMGISFMTSYRDIQELIDKAYIISKGQGRGTYYILAN | -0.569
HMKMQIGEIIRKYRKSNHMTQEEMAERLGVSAPAVNKWENGNSMPDIMLLAPITRLLGISLDELLSFE | -1.24
HMKMSVEEVNLSPRTTNALINNDIKTMKDLVALTDTELRDLKGFGSKAYEEVKEKLSELGLSTQ | 0.227
HMKMSVKNEIISLLEKNRDTSISGQVIADSLNVTRAAVWKAIKVLKEEGYNIDGTPNKGYILLGNN | -0.368
HMKMTFGENLHKLRKIYRLSQEDVASAINLKRSDIAAVEKGDRVLNDEELDKLADFIGIDIVDLL | -0.193
HMKMVSTPTGTRISLTQVKEFISNASFDDMKEILLEVLAWFKAHNLGNPFNYNRAFEFIVAH | 0.102
HMKNELNSKLIISIKEALPPQIKVATYLMDLLSLGREAVYRRIRGDVSFDLEELSIISKALNISIDDVL | -4.15
HMKNESLMLPRDIDYSRVHGLSNEAIQKLQDALPQSLGQASRIEGITPATLSLLLLYLKKNNKRI | -0.00929
HMKNHSTFKSVLSNIEFPINERISGHAIQNPILGLIKADHPNFSSDQYIAISELNFYREKYISNYLLTEI | -3.35

Sequence | soluble fraction (log2)
HMKNKIYGTIVSSTSGEETVYKVFQVDSSKDITYLFRPDMIRLAHENNQALEFNEETGRGKRIEMSDLPK | 0.0213
HMKNLHLVPNVVGMSAKEAKNTLKSFNIKYKPIYGSSNKYDENYIFNQNPRKGKTIKEQEVVTIYISRGAD | -1.07
HMKNNNIIFSEFLKEVENGRVVEVRIQGNNIQGIMSNGKEFTTYSPNYPNLIEKLTETGVSISAAPL | 0.0449
HMKNPLIIGMTKDKIIELIGMPDNIKFLDSSLSKSEVWNYDKFGKKLYIKDEKLYQIENIEE | 0.016
HMKNSAAKETILAFLKKNGGELFTQMQIIEKFQKMIPAPVLRITLEELLNKGQVEITSKGKYYLSVKGS | -0.587
HMKNSKIVIQKRHNHILELLKQNRTMDVTVLAERLGVTGATIRRDLKKLEQEGTIVRSFGKVSFVG | -0.867
HMKNTVGEYRKLKSTTILYSNSDLTGTKYTYLPNTTVKILKNISSTVDYVYIKATNRYAYINIYAYT | -2.75
HMKNVENIILEQLKKNIYDDLNNASFEEIILIDAEKSIYKGTIKANYIEYNFKINLSTGEILKWKLK | -0.117
HMKNVSVKMILSPESLGEIQVDLVFSKGKDLEIMLRPETAEVAKLIQSNSASLREQLSLEHKGPLSLNVS | -0.626
HMKNYALHEPMMDRIAKVNALYDAGHTIKYMTARGAVSMVDYYDLTKSQLDSWGAKYHELSVGK | -0.0372
HMKNYYEVLGVPRDAAAPDIKRAFRKLAKQFHPDHNPGDAKAEERFKLVSQAYDVLGDEEKRKLYDQFGE | 0.173
HMKNYYSILGVTPDSSEAEIKSAYRRLARKFHPDVNPDGASRFKDISEAYETLSDAKKRFQYDTINGF | 0.107
HMKPATSITFIPSERPDLVEQLSKITFDKKDSLYENYINLNWLTFEAISVYMREGDIIGFST | 0.0284
HMKPDAAKREQLIDIALRLFSQQGIARTSLNAIAREAGVTPAMLHYYFNSREQLLDVMIEERFL | -3.09
HMKPDIETQLKKYRYKVSVSKKIKPYMVFSDKTLSELLTKSPTNLKELEDINGFGPVKVQEYGAAILEILK | -0.777
HMKPDSEFTSQDLWQNDLAGTGSAAYRRDKMGALLGIGYGNAKRFLERLNSYGVTRSEFDEALAQLGE | -0.0612
HMKPEDIALLEEIRDLLKEKKSVIVNLEYVNKDVARRIVDFISGGVFALNGHIQKVSNSIFLVAPMN | 0.00619
HMKPMNNNDILRRLRYTFDLSDDKMMETFALGGYEANRSEISDWLKKDDHPEQKSLYDKSLSHFLNGFIV | -0.202
HMKPPVQVIGKAVVTASSLNVRTGPGTGHGIITSLPRNTEVELLEQQGEWYKIRRGSTVGYVHGGYLKIN | -0.00404
HMKPRISMITLGVKDLNKSIEFYGGGLGFPRKKTEPEIAIFKLNGSWLSLYNRGLLAEDANVS | -0.0946
HMKPSKYTLAIDSIPVHVTRKQMKSIRLRVTPLGEVRVSAPYGVKDSEIVEMVRSRKLWIESQQRA | -0.992
HMKPSTETLYATARINVRAAADTSAEKLGSIEMGEAVVRTGTDGDWSIIEYNGSTGYVKSEYLTANAGDAT | -0.0962
